Results reported in PMC6393240, “DNA replication initiation in Bacillus subtilis: structural and functional characterization of the essential DnaA–DnaD interaction” (Nucleic Acids Research, 2018).

B1: DnaA domain I (residues 1–81) of Bacillus subtilis DnaA (domain or fragment, UniProt P05648 1-81, looked up)
chain: MENILDLWNQALAQIEKKLSKPSFETWMKSTKAHSLQGDTLTITAPNEFARDWLESRYLHLIADTIYELTGEELSIKFVIP
notes: DnaA, Bacillus subtilis, domain I, residues 1-81; After thrombin cleavage a residual N-terminal Gly-Ser-His leader remains; 15N-labelled (or 13C/15N) where it is the observed partner in NMR, unlabelled in the reverse titration; also called N-terminal domain I of DnaA; DnaA NTD; not shown: His tag, N-terminal, cleaved

Tests used:
[1] = target: T1, DnaD DDBH2 domain (residues 129–232) of Bacillus subtilis DnaD (Bacillus subtilis, UniProt P39787 129-232); assay: NMR titration; reverse titration: unlabelled DnaA domain I titrated into 15N-labelled DnaD DDBH2 (100 μM) up to 8:1 excess; 50 mM potassium phosphate pH 7.4, 100 mM NaCl; 25°C; KD averaged over five residues; settings: both partners purified
T1 construct: DnaD, Bacillus subtilis, DDBH2 domain, residues 129-232; A residual N-terminal Gly-Ser-His remains after thrombin cleavage; 15N-labelled in the reverse titration; also called C-terminal DDBH2 domain; not shown: His tag, N-terminal, cleaved
T1 sequence (looked up): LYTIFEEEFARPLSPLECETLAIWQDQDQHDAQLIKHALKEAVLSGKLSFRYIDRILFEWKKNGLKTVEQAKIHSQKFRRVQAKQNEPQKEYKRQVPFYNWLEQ

[2] = target: T1, DnaD DDBH2 domain (residues 129–232) of …; assay: NMR titration; 1H-15N HSQC, chemical shift perturbations; unlabelled DnaD DDBH2 (129-232 or 129-196) titrated into 15N-labelled DnaA domain I (100 μM) up to 8:1 excess; 50 mM potassium phosphate pH 7.4, 100 mM NaCl; 25°C; KD averaged over five residues; settings: both partners purified
[3] = target: the molecule itself; assay: cross-linking; BMOE (2 mM) cross-linking of 1.5 μM DnaA(N191C/A198C) with 3 nM 819 bp DNA, 2 mM ATP, 37°C; SDS-PAGE, Coomassie
[4] = target: the molecule itself; assay: FRET or BRET; single-molecule FRET, confocal, room temperature; 1.5 μM DnaA (1:1:2 Cy3B-labelled: Atto647N labelled: un-labelled) with 3 nM 819 bp oriC DNA fragment and 2 mM ATP, 37°C 15 min; measured at ∼100 pM DnaA in imaging buffer
[5] = target: DnaA(N191C), labelled with Cy3B or Atto647N (Bacillus subtilis) (UniProt P05648)
[6] = target: B1; assay: NMR titration; 1H-15N HSQC, chemical shift perturbations; unlabelled DnaD DDBH2 (129-232 or 129-196) titrated into 15N-labelled DnaA domain I (100 μM) up to 8:1 excess; 50 mM potassium phosphate pH 7.4, 100 mM NaCl; 25°C; KD averaged over five residues; settings: both partners purified
[7] = target: DnaA(N191C), labelled with Cy3B or Atto647N (Bacillus subtilis) (UniProt P05648); remark: listed apart in the source

B1 showed a Kd [1] of 665 ± 251 µM and a Kd [2] of 768 ± 168 µM.

B2: DnaA(N191C/A198C) (natural protein, Bacillus subtilis, UniProt P05648 1-446, looked up)
chain: MENILDLWNQALAQIEKKLSKPSFETWMKSTKAHSLQGDTLTITAPNEFARDWLESRYLHLIADTIYELTGEELSIKFVIPQNQDVEDFMPKPQVKKAVKEDTSDFPQNMLNPKYTFDTFVIGSGNRFAHAASLAVAEAPAKAYNPLFIYGGVGLGKTHLMHAIGHYVIDHNPSAKVVYLSSEKFTNEFICSIRDNKCVDFRNRYRNVDVLLIDDIQFLAGKEQTQEEFFHTFNTLHEESKQIVISSDRPPKEIPTLEDRLRSRFEWGLITDITPPDLETRIAILRKKAKAEGLDIPNEVMLYIANQIDSNIRELEGALIRVVAYSSLINKDINADLAAEALKDIIPSSKPKVITIKEIQRVVGQQFNIKLEDFKAKKRTKSVAFPRQIAMYLSREMTDSSLPKIGEEFGGRDHTTVIHAHEKISKLLADDEQLQQHVKEIKEQLK
notes: DnaA, Bacillus subtilis, double cysteine mutant N191C/A198C; also called DnaA(N191C/A198C) mutant protein
B2: binds [3].

B3: DnaA(A198C), labelled with Cy3B or Atto647N (natural protein, Bacillus subtilis, UniProt P05648 1-446, looked up)
chain: MENILDLWNQALAQIEKKLSKPSFETWMKSTKAHSLQGDTLTITAPNEFARDWLESRYLHLIADTIYELTGEELSIKFVIPQNQDVEDFMPKPQVKKAVKEDTSDFPQNMLNPKYTFDTFVIGSGNRFAHAASLAVAEAPAKAYNPLFIYGGVGLGKTHLMHAIGHYVIDHNPSAKVVYLSSEKFTNEFINSIRDNKCVDFRNRYRNVDVLLIDDIQFLAGKEQTQEEFFHTFNTLHEESKQIVISSDRPPKEIPTLEDRLRSRFEWGLITDITPPDLETRIAILRKKAKAEGLDIPNEVMLYIANQIDSNIRELEGALIRVVAYSSLINKDINADLAAEALKDIIPSSKPKVITIKEIQRVVGQQFNIKLEDFKAKKRTKSVAFPRQIAMYLSREMTDSSLPKIGEEFGGRDHTTVIHAHEKISKLLADDEQLQQHVKEIKEQLK
modifications: Cy3B-maleimide or Atto647N-maleimide on the single cysteine A198C (mixed 1:1:2 Cy3B-labelled: Atto647N labelled: un-labelled)
notes: DnaA, Bacillus subtilis, single cysteine mutant A198C; Printed once as DnaA^N198C and once as DnaA^A19C in the methods (misprints)
B3: binds [4].

B4: DnaD196, truncated DnaD lacking the C-terminal residues 197–232 (domain or fragment)
chain: MKKQQFIDMQEQGTSTIPNLLLTHYKQLGLNETELILLLKIKMHLEKGSYFPTPNQLQEGMSISVEECTNRLRMFIQKGFLFIEECEDQNGIKFEKYSLQPLWGKLYEYIQLAQNQTQERKAEGEQKSLYTIFEEEFARPLSPLECETLAIWQDQDQHDAQLIKHALKEAVLSGKLSFRYIDRILFEWKKNGLKTV
Work on B4 yielded a single-molecule FRET of labelled DnaA–DNA filaments: apparent FRET efficiency E* with DnaD196 (24 μM); E* ∼0.7 in its absence [5] of 0.5.

B5: Truncated DnaD DDBH2 domain (residues 129–196) (domain or fragment, Bacillus subtilis, UniProt P39787 129-196, looked up)
chain: LYTIFEEEFARPLSPLECETLAIWQDQDQHDAQLIKHALKEAVLSGKLSFRYIDRILFEWKKNGLKTV
notes: DnaD, Bacillus subtilis, DDBH2 domain truncated at the C-terminus, residues 129-196; Made from the DDBH2 (129-232) construct by Q5 site directed mutagenesis; A residual N-terminal Gly-Ser-His remains after thrombin cleavage; also called DnaD DDBH2 domain truncation; truncated DDBH2; not shown: His tag, N-terminal, cleaved
B5: binds [6].

B6: DnaD, full length, Bacillus subtilis (natural protein)
chain: MKKQQFIDMQEQGTSTIPNLLLTHYKQLGLNETELILLLKIKMHLEKGSYFPTPNQLQEGMSISVEECTNRLRMFIQKGFLFIEECEDQNGIKFEKYSLQPLWGKLYEYIQLAQNQTQERKAEGEQKSLYTIFEEEFARPLSPLECETLAIWQDQDQHDAQLIKHALKEAVLSGKLSFRYIDRILFEWKKNGLKTVEQAKIHSQKFRRVQAKQNEPQKEYKRQVPFYNWLEQ
B6 gave a single-molecule FRET of Cy3B/Atto647N-labelled DnaA–DNA filaments: apparent FRET efficiency E* with DnaD (24 μM) added before or after DnaA; E* ∼0.7 without DnaD [7] of 0.5.
